This assay deals with HIRA(1–405), untagged (HIRA WD repeats) (human, UniProt P54198 1-405). The assay is described as follows: AUC.

Consider two molecules from PMC3320765 (Biochemistry, 2012).

The term Kd denotes a measure of binding affinity in units of concentration.

Chain of HIRA(1–405), untagged (HIRA WD repeats) (P54198 1-405): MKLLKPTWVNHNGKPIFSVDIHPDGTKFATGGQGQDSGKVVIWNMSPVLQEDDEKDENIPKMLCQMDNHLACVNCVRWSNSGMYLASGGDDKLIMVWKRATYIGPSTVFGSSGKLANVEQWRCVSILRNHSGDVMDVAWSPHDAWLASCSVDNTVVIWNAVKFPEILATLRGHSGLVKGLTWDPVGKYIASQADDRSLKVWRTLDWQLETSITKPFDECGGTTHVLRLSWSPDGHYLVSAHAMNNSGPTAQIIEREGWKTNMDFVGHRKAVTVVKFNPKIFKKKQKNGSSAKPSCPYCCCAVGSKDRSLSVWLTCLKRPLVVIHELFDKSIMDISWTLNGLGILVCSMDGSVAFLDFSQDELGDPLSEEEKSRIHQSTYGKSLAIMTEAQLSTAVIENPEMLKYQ

B1: 6His-UBN1(41–119) (domain or fragment, human, UniProt Q9NPG3 41-119, looked up)
chain: AAAAVRITLTLFEPDHKRCPEFFYPELVKNIRGKVKGLQPGDKKKDLSDPFNDEEKERHKVEALARKFEEKYGGKKRRK
B1 gave a Kd of 6.5 nM.

B2: 6His-UBN1(41–175) (domain or fragment, human, UniProt Q9NPG3 41-175, looked up)
chain: AAAAVRITLTLFEPDHKRCPEFFYPELVKNIRGKVKGLQPGDKKKDLSDPFNDEEKERHKVEALARKFEEKYGGKKRRKDRIQDLIDMGYGYDESDSFIDNSEAYDELVPASLTTKYGGFYINSGTLQFRQASES
Molecule B2 showed a Kd of 13.3 nM.
